Laboratory results reported in patent US8853165B2, “Peptide having the ability to regenerate bone tissue and for binding to apatite” (Nano Intelligent Biomedical Engineering Corporation Co., …, priority 2010, dated 2014).
Where “and” joins values, the source holds several entries; their conditions need not be identical. Equal entries are not always repeated. Residues, ends and D or L forms follow the SMILES beside them. *: point of attachment. FITC = O=C1OC2(c3ccc(O)cc3Oc3cc(O)ccc32)c2ccc(NC(=S)*)cc21

Columns and labels:
rabbit calvarial defect [1] = assay: In vivo stability of FITC-labeled peptide on bone mineral grafted into calvarial defect (confocal microscope, blood fluorometer); settings: 10 mg and 20 mg bone mineral grafted, blood before and 1, 3, 7, 14, 21, 28 days after graft
Procedure: In order to test in vivo stability, 10 equivalents of fluorescein isothiocyanate (FITC) was allowed to bind to the N-terminus by using triethylamine (1 ml per 1 g of resin) at the time of preparing the peptide of SEQ ID NO: 40. The peptide synthesis was confirmed by measuring the molecular weight thereof through MALDI-TOF.
The peptide of SEQ ID NO: 40, labeled with FITC, was precipitated in the bovine bone mineral (OCS-B, NIBEC). The resultant bone mineral was grafted into the rabbit calvarial defect, and then scarified after 4 weeks. After that, the bone mineral grafted into the calvarial defect was observed by using a confocal microscope (Olympus, Japan). The bone mineral with a binding peptide of SEQ ID NO: 40, labeled with FITC, in 10 mg and 20 mg was grafted into the rabbit calvarial defect. The blood was taken before the graft and 1 day, 3 days, 7 days, 14 days, 21 days, and 28 days after the graft, and then it was determined by using the Fluorometer whether or not the peptide was freed into the systemic blood.

[2] = Peptide release (elution) test from bone graft material in PBS at 37° C., HPLC; format: physicochemical, bovine; settings: for Release of Peptide from Bone Mineral: PBS, 37° C., Lot Nos. 1-3
Procedure: 1200 mg of the peptide prepared in Example 1 was dissolved in 1 mL of tertiary distilled water, and then 4 g of bovine bone mineral (OCS-B, NIBEC) was added thereto, followed by deposition for 24 hours and then freeze-drying.
4 g of a bone graft material with a binding peptide was input to 20 mL of PBS, and then the peptide release test was conducted at 37° C. After 7 days, 20 Ml of elution solvent that was initially introduced was completely removed, and then 20 Ml of new elution solvent was again added to proceed elution at 37° C. In the above manner, the peptide elution test was conducted for 14 days, 28 days, 56 days, 84 days, and 100 days. After completion of elution, the bone graft material was collected and the peptide content was measured.
3 g of the bone graft material with a binding peptide was precisely weighed, and then made into powder. About 2 g of the powder corresponding to 160 mg of peptide was precisely weighed, which was then input to 40 mL of Solution A as mobile phase, followed by sonication for 1 hour. After that, extraction was conducted while stirring at 37±2° C. for 24 hours, and then the upper layer of the extracted solvent was separated by centrifuging at 3000 rpm for 10 minutes and then filtration with a 0.22 μm millipore filter. 1 mL thereof was taken therefrom, and mixed with 3 mL of Solution A, which was then filtered through a 0.22 μm millipore filter, then the filtrate was used as the test liquid.
The peptide standard product was dried in the desiccator (silica gel) for 5 hours, and then 10 mg thereof was precisely weighed, which was then dissolved by the addition of Solution A as a mobile phase, and then exactly 10 mL thereof was used as a standard liquid.
The test liquid and the standard liquid each 10 μl were tested under the following operating conditions for liquid chromatography, to obtain test liquid and standard liquid peak areas, AT and AS. Amount of peptide (mg)=amount of peptide standard product (mg)×
Meter: Analytical HPLC (Shimadzu, Japan)
Column: Filled with C18-bonded silica gel with 5 μm size (length: […], inner diameter: 4.6 mm)
Mobile phase: 0.1% trifluoroacetic acid/DDW (Solution A) 0.098% trifluoroacetic acid/acetonitrile (Solution B)
Detector: UV absorption spectrometer (measurement wavelength: 230 nm)
Column temperature: Constant at approximately 40° C.

rabbit calvarial defect [3] = assay: In vivo bone regeneration capacity of peptide-bound bone graft material in calvarial defect; design: species or system rabbit (NewZealand white rabbit); settings: peptide bound to bone graft material, 50 mg per 8 mm defect, 2 weeks after graft, histology
Description: Each of the peptides of SEQ ID NO: 35, SEQ ID NO: 36, and SEQ ID NO: 40, prepared in Example 1, was allowed to bind to a bone graft material by the same method as Example 2, which was then grafted into the rabbit calvarial defect. The bone regeneration capacity thereof was confirmed. An 8 mm-diameter circular bone defect was formed in the calvarial region of the anesthetized rabbit (NewZealand white rabbit, specific name: cuniculus). The bone graft material and the peptide-containing bone graft material were grafted into the bone defect with 50 mg for each defect, and the periosteum and skin were doubly sutured. The animal was sacrificed 2 weeks after the graft, and the taken sample was fixed in the formaline solution. The tissue was subjected to embedding to prepare a 20 μm-thick specimen. The prepared specimen was stained with basic fuchsin and toluidine blue to produce a nondemineralized sample. The thus produced sample was observed by an optical microscope, and photographed.

Compound: CC[C@H](C)[C@H](NC(=O)[C@H](CC(=O)O)NC(=O)[C@@H]1CCCN1C(=O)[C@H](CCCNC(=N)N)NC(=O)[C@H](CCCNC(=N)N)NC(=O)[C@H](Cc1ccccc1)NC(=O)[C@H](CCCCN)NC(=O)[C@H](CCCCN)NC(=O)[C@H](CO)NC(=O)[C@H](CCCCN)NC(=O)[C@H](CO)NC(=O)[C@H](CCCNC(=N)N)NC(=O)[C@H](CC(C)C)NC(=O)CNC(=O)[C@H](Cc1ccc(O)cc1)NC(=O)[C@H](CCC(=O)O)NC(=O)[C@H](CCCNC(=N)N)NC(=O)[C@H](CO)NC(=O)[C@H](Cc1ccccc1)NC(=O)[C@H](CCC(=O)O)NC(=O)[C@H](Cc1c[nH]cn1)NC(=O)[C@@H]1CCCN1C(=O)[C@@H](NC(=O)[C@@H]1CCCN1C(=O)[C@H](CC(C)C)NC(=O)[C@@H](NC(=O)[C@H](CO)NC(=S)Nc1ccc2c(c1)C(=O)OC21c2ccc(O)cc2Oc2cc(O)ccc21)[C@@H](C)O)[C@@H](C)CC)C(=O)N[C@@H](CCC(N)=O)C(=O)N[C@@H](Cc1ccc(O)cc1)C(=O)N1CCC[C@H]1C(=O)N[C@@H](CC(=O)O)C(=O)N[C@@H](C)C(=O)N[C@H](C(N)=O)[C@@H](C)O [SEQ ID NO: 40, labeled with FITC] ({FITC}-STLPIPHEFSREYGLRSKSKKFRRPDIQYPDAT-NH2)
- RFI values of blood (peptide freed into systemic blood) (rabbit calvarial defect [1]): no differences as compared with the values before the graft

Compound: NH2-STLPIPHEFSRE-YGLRSKSKKFRRPDIQYPDAT-COONH2 (H-STLPIPHEFSREYGLRSKSKKFRRPDIQYPDAT-NH2) [SEQ ID NO: 40]
- Content of Peptide Remaining in Bone Mineral ([2]; after ending the 100 day elution, Lot Nos. 1, 2, 3): 9.2 mg and 9.18 mg and 9.78 mg and 9.19 mg
- Release of Peptide from Bone Mineral ([2]; day 7): 0 mg
- Release of Peptide from Bone Mineral ([2]; day 14): 0 mg
- Release of Peptide from Bone Mineral ([2]; day 28): 0 mg
- Release of Peptide from Bone Mineral ([2]; day 56): 0 mg
- Release of Peptide from Bone Mineral ([2]; day 84): 0 mg
- Release of Peptide from Bone Mineral ([2]; day 100): 0 mg
- peak of the peptide in the elution liquid ([2]; elution test for 100 days, Lot No. 1, 2 and 3, retention time 14.196 min): not observed
- bone regeneration effect (rabbit calvarial defect [3]): remarkably increased bone regeneration capacity as compared with A and B

Compound: STLPIPHEFSRE (apatite binding peptide) [SEQ ID NO: 36]
- bone regeneration effect (rabbit calvarial defect [3]): smallest

Compound: YGLRSKSKKFRRPDIQYPDAT (partial peptide of bone sialoprotein) [SEQ ID NO: 35]
- bone regeneration effect (rabbit calvarial defect [3]): increased bone regeneration effect as compared with A
